Experimental data taken from the supplement of paper PMC10567573.
± gives the standard deviation.

Assay: protein stability index of a GFP-peptide fusion (GPS, HEK-293T) (PSI 1-6); higher = more stable
[1] = treatment: DMSO, c terminus: a fixed tail appended
[2] = treatment: MLN4924 1 uM, 8 h, c terminus: a fixed tail appended
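Further: 24-mer peptide tiles fused after GFP, lentivirally expressed, FACS-sorted into six equal bins by GFP/DsRed ratio, decoded by Illumina sequencing, PSI is the read-weighted mean bin number.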

Sequence: QGEGPEAGDAEVCPTPARLATTEK [NOP53]
- protein stability index [1]: 5.46 ± 0.27
- protein stability index [2]: 5.44 ± 0.19

Sequence: EGSREHAFQITGVWDASRAPRGTP [PLEKHN1]
- protein stability index [1]: 4.34 ± 0.27
- protein stability index [2]: 4.39 ± 0.26

Sequence: LKENNFQPYPLPHVRHMAYQLCHA [CLK3]
- protein stability index [1]: 2.46 ± 0.12
- protein stability index [2]: 2.21 ± 0.26

Sequence: DPGADSEKSTVVEGGEVRFNGKGK [DLX1]
- protein stability index [1]: 5.51 ± 0.22
- protein stability index [2]: 5.58 ± 0.18

Sequence: VAVDSNLRVRELQRKVDGIQKAYD [CCDC89]
- protein stability index [1]: 3.85 ± 0.21
- protein stability index [2]: 3.94 ± 0.39

Sequence: AEDDHMLIQNEYRNGGSLADAISE [WEE1]
- protein stability index [1]: 5.06 ± 0.27
- protein stability index [2]: 4.9 ± 0.43

Sequence: VEMDIYTALKKWMFLQLVPSWNGS [GMCL1]
- protein stability index [1]: 2.65 ± 0.092
- protein stability index [2]: 2.66 ± 0.65

Sequence: AWKDDFALNSMLRRRFREKKKAIQ [YJU2B]
- protein stability index [1]: 3.27 ± 0.36
- protein stability index [2]: 3.37 ± 0.13

Sequence: LTCALMLLNTDLHGHNIGKKMSCQ [PSD2]
- protein stability index [1]: 2.54 ± 0.49
- protein stability index [2]: 2.41 ± 0.74

Sequence: SETGSTGALETRSLKDHKVSFLRS [C2CD2L]
- protein stability index [1]: 4.48 ± 0.29
- protein stability index [2]: 4.46 ± 0.19

Sequence: PDITSSRYRGLPAPGPSPADKKRS [WAS]
- protein stability index [1]: 5.22 ± 0.097
- protein stability index [2]: 5.271 ± 0.036

Sequence: QALKFLPVPSAPVIDLAESLVADN [FSD1]
- protein stability index [1]: 3.48 ± 0.42
- protein stability index [2]: 3.77 ± 0.28

Sequence: EDIALNKHRSRRKWCFWNSSPAVA [RHOBTB1]
- protein stability index [1]: 2.31 ± 0.22
- protein stability index [2]: 2.28 ± 0.23

Sequence: LTIMPYNSAHHCVVEVENFLFVLG [KLHL14]
- protein stability index [1]: 3.26 ± 0.64
- protein stability index [2]: 3.02 ± 0.32

Sequence: VPAAGGPAPKRGYSSEMKTEDELR [AUH]
- protein stability index [1]: 5.53 ± 0.68
- protein stability index [2]: 5.9 ± 0.071

Sequence: MENKSLESSQTDLKLVAHPRAKSK [ZBED1]
- protein stability index [1]: 5.26 ± 0.29
- protein stability index [2]: 5.27 ± 0.25

Sequence: DAGGIPRTAQSEETRVWHRRDGKW [CAMK2A]
- protein stability index [1]: 4.92 ± 0.13
- protein stability index [2]: 4.86 ± 0.1

Sequence: AELFSYVLQDRAAKGSLGTQIGFA [FEM1A]
- protein stability index [1]: 2.16 ± 0.21
- protein stability index [2]: 2.11 ± 0.23

Sequence: TAHLYSLLQTQHALGDAFADLSQK [ARFIP2]
- protein stability index [1]: 2.18 ± 0.25
- protein stability index [2]: 2.22 ± 0.23

Sequence: TFPDLESEFQAALSRKVAELVHFL [MAGEA3]
- protein stability index [1]: 2.34 ± 0.37
- protein stability index [2]: 2.45 ± 0.33

Sequence: LGHAAAFSDDCDLPSAQDINRLVG [GLT8D2]
- protein stability index [1]: 4.23 ± 0.18
- protein stability index [2]: 4.43 ± 0.24

Sequence: TLRPDQQLHIFNTLRSHLIDKGML [CDS2]
- protein stability index [1]: 2.14 ± 0.28
- protein stability index [2]: 2.24 ± 0.13

Sequence: DPQILQMLKEEHQIILENQKNFGL [RAD54B]
- protein stability index [1]: 3.25 ± 0.3
- protein stability index [2]: 3.812 ± 0.008

Sequence: MTSMSAELKMRAIQAEERLDMEKR [LRRC45]
- protein stability index [1]: 4.65 ± 0.19
- protein stability index [2]: 4.9 ± 0.16

Sequence: YEKKQTLGQNDTGFSCDGTANTFR [BTBD1]
- protein stability index [1]: 4.23 ± 0.3
- protein stability index [2]: 4.15 ± 0.14

Sequence: EPAGSLRELGVWRSLLRLRATRAG [C2CD2L]
- protein stability index [1]: 2.88 ± 0.29
- protein stability index [2]: 3.06 ± 0.46

Sequence: RDKNWQTPLHVAAANKAVKCAEVI [ANKRD44]
- protein stability index [1]: 3.69 ± 0.38
- protein stability index [2]: 3.7 ± 0.19

Sequence: DAAYRKALDLAREFLPQGPVAMRV [AUH]
- protein stability index [1]: 2.25 ± 0.64
- protein stability index [2]: 2.19 ± 0.33

Sequence: AATDITGFGILGHSQNLAKQQRNE [SEPHS2]
- protein stability index [1]: 4.68 ± 0.38
- protein stability index [2]: 4.57 ± 0.31

Sequence: DGENVFTGQSKIYSYMSPNKCSGM [KMT5A]
- protein stability index [1]: 3.3 ± 0.29
- protein stability index [2]: 3.3 ± 0.14

Sequence: KQKNAYIGTQGPLENTYRDFWLMV [PTPN9]
- protein stability index [1]: 2.44 ± 0.51
- protein stability index [2]: 2.4 ± 0.36

Sequence: IYQGEDLPHPKSMLQATAEANNLA [ATL3]
- protein stability index [1]: 4.25 ± 0.23
- protein stability index [2]: 4.332 ± 0.041

Sequence: PFNKVQSARFWIPGEPNNAGNNEH [CD207]
- protein stability index [1]: 3.92 ± 0.35
- protein stability index [2]: 3.93 ± 0.17

Sequence: ALKKSADWVSDWSSRPENIPPKEF [BNIP3L]
- protein stability index [1]: 3.55 ± 0.23
- protein stability index [2]: 3.77 ± 0.18

Sequence: VGSGYRMSLVKRRFATGMYLVSC [FCHO1]
- protein stability index (treatment: DMSO, c terminus: native): 2.89 ± 0.34
- protein stability index (treatment: MLN4924 1 uM, 8 h, c terminus: native): 3.03 ± 0.4

Sequence: THEVMGPKKKHLDYLIQATNETNV [SNAP91]
- protein stability index [1]: 3.85 ± 0.32
- protein stability index [2]: 3.69 ± 0.64
